Earlier results on 2 substances are cited in article PMC7109197.

Like-named read-outs stand apart in the source and are kept apart here. Where only a bound is given, the exact number is not on record here.

Common to all, as to experiment: NMR
For data set [1], the target named is cardiac troponin C N-domain (Homo sapiens) (UniProt P63316).
The target is the same in data set [2]. This is another data set of the same source.
Data set [3] deals with cardiac troponin C CTD (Homo sapiens) (UniProt P63316).
Data set [4] has the same target. The source holds these as a separate data set.

By Kd is commonly meant the concentration at which binding is half-saturated. Take “cTnI switch peptide switch peptide (from UniProt P19429)”: the Kd in data set [1] was 370 µM; in data set [2], 600 µM.

Consider “cardiac troponin I 34-71 (from UniProt P19429)”, for which the figures for the dissociation constant (Kd) in data set [3] and in data set [4] were 3 µM and under 1 µM, respectively.
